Measured values published in US9879094B2, “Nucleic acid molecules encoding for BACE1 antibodies” (Genentech, Inc., priority 2010, dated 2018).
Where “and” joins values, the source holds several entries; their conditions need not be identical. Equal entries are not always repeated.

Experiments:
mouse cortical neurons = assay: Antibody internalization in primary neurons; type: cell-based
Protocol: BACE1 is known to be expressed intracellularly, particularly in the Golgi. To ascertain whether or not YW412.8.31 interacts with BACE1 in an intracellular environment, internalization studies were performed. One set of neuronal cultures was prepared from E13.5 dorsal root ganglia (DRG) explants, and a second set of neuronal cultures was prepared from E16.5 dissociated cortical neurons from BACE1+/+ or BACE1−/− mice and cultured for 24 or 72 hours, respectively, at 37° C. Media containing 0.5 μM YW412.8.31 anti-BACE1 antibody was added to the cultures for time periods varying from 30 minutes to 2 hours, and incubated at either 4° C. or 37° C. Unbound antibody was washed out thoroughly with PBS after treatment. […] Bound antibody was detected using a secondary Alexa 568-conjugated anti-Human IgG1 antibody (Molecular Probes) according to the manufacturer's directions.
Additionally, mouse cortical neurons were cultured in the presence of YW412.8.31 anti-BACE1 antibody or a control IgG for 10 minutes or 3 hours, after which the antibody was detected by immunostaining Neuronal cultures were prepared from E15.5 dissociated cortical neurons, and cultured for 14 DIV. […] Bound antibody was detected using an Alexa 568-conjugated anti-Human IgG1 secondary antibody (Molecular Probes). […]

[1] = Serum PK in BALB/C and BACE1 knock-out mice; type: in vivo, mouse
Protocol: Additionally, PK data was obtained after dosing with YW412.8.31 anti-BACE1 antibody in wild-type and BACE1 knock-out mice. A single dose of anti-BACE1 (1 or 10 mg/kg) was delivered via IV injection to BALB/C mice. Serum PK was analyzed out to 21 days post-dose.
Total anti-BACE1 antibody concentrations in mouse serum and brain samples were measured as follows. Antibody concentrations in mouse serum and brain samples were measured using an enzyme-linked immunosorbent assay (ELISA). NUNC 384 well Maxisorp immunoplates (Neptune, N.J.) were coated with F(ab′)2 fragment of donkey anti-human IgG, Fc fragment specific polyclonal antibody (Jackson ImmunoResearch, West Grove, Pa.) overnight at 4° C. Plates were blocked with phosphate-buffered saline (PBS) containing 0.5% bovine serum albumin (BSA) for 1 hour at room temperature the next day. Each antibody (Control IgG and anti-BACE1) was used as a standard to quantify the respective antibody concentrations. […] Bound antibody was detected with horseradish peroxidase conjugated F(ab′)2 goat anti-human IgG, Fc specific polyclonal antibody (Jackson ImmunoResearch). […] Absorbance was measured at a wavelength of 450 nm with a reference of 630 nm on a Multiskan Ascent reader (Thermo Scientific, Hudson, N.H.). Concentrations were determined from the standard curve using a four-parameter non-linear regression program. […]

BACE1 = BACE1 (Homo sapiens, UniProt P56817); assay: HTRF BACE1 enzyme activity assay (long peptide Bi27); type: biochemical; settings: IgG, long peptide substrate
Chain of BACE1 (P56817 22-457): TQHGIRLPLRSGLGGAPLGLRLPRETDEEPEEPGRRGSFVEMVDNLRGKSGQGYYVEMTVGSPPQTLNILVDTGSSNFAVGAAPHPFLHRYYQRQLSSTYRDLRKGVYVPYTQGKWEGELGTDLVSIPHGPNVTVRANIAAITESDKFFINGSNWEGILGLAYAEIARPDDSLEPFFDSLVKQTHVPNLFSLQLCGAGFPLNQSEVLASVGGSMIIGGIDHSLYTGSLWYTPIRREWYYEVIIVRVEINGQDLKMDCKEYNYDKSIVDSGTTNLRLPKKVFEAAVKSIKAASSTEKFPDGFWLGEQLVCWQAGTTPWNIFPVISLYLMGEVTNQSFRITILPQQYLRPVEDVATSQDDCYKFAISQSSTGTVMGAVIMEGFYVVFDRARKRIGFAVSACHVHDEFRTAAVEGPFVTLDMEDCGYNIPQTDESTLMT
Protocol: The HTRF assay was performed as follows. […] The proteolytic reaction mixture was incubated at ambient temperature for 75 minutes and was quenched by the addition of 5 μL HTRF detection mixture containing 2 nM Streptavidin-D2 and 150 nM of 6E10 anti-amyloid beta antibody (Covance, Emoryville, Calif.) labeled with Europium cryptate in detection buffer (200 mM Tris pH 8.0, 20 mM EDTA, 0.1% BSA, and 0.8M KF). The final reaction mixture was incubated at ambient temperature for 60 minutes and the TR-FRET signal was measured using an EnVision Multilabel Plate Reader™ (Perkin-Elmer) at an excitation wavelength of 320 nm and emission wavelengths of 615 and 665 nm. Reactions lacking BACE1 enzyme (0 BACE) and reactions containing lacking anti-BACE1 antibodies (PBS (100% BACE1 Activity) were used as controls.
Fab proteins of 6 clones were purified and subjected for HTRF enzyme activity assay, as described above.
The affinity matured YW412.8.31 anti-BACE1 antibody was tested in a HTRF assay as described in Example 1. […] Additionally, reactions using a short FRET peptide (Rh-[…]-quencher (SEQ ID NO:54), Invitrogen) were also performed identically to the HTRF reactions. The resulting fluorogenic products from the control reactions were measured as above, but at an excitation wavelength of 545 nm and an emission wavelength of 585 nm. Obtained data were analyzed using GraphPad Prism 5™ (LaJolla, Calif.).

[2] = Antibody concentration in serum and brain of wild-type mice; type: in vivo, mouse
Protocol: Total anti-BACE1 antibody concentrations in mouse serum and brain samples were measured as follows. Antibody concentrations in mouse serum and brain samples were measured using an enzyme-linked immunosorbent assay (ELISA). NUNC 384 well Maxisorp immunoplates (Neptune, N.J.) were coated with F(ab′)2 fragment of donkey anti-human IgG, Fc fragment specific polyclonal antibody (Jackson ImmunoResearch, West Grove, Pa.) overnight at 4° C. Plates were blocked with phosphate-buffered saline (PBS) containing 0.5% bovine serum albumin (BSA) for 1 hour at room temperature the next day. Each antibody (Control IgG and anti-BACE1) was used as a standard to quantify the respective antibody concentrations. After washing plates with PBS containing 0.05% Tween 20 using a microplate washer (Bio-Tek Instruments, Inc., Winooski, Vt.), standards and samples diluted in PBS containing 0.5% BSA, 0.35 M NaCl, 0.25% CHAPS, 5 mM EDTA, 0.05% Tween 20 and 15 ppm Proclin were incubated on plates for 2 hours at room temperature with mild agitation. Bound antibody was detected with horseradish peroxidase conjugated F(ab′)2 goat anti-human IgG, Fc specific polyclonal antibody (Jackson ImmunoResearch). Finally, plates were developed using the substrate 3,3′,5,5′-tetramethyl benzidine (TMB) (KPL, Inc., Gaithersburg, Md.). Absorbance was measured at a wavelength of 450 nm with a reference of 630 nm on a Multiskan Ascent reader (Thermo Scientific, Hudson, N.H.). Concentrations were determined from the standard curve using a four-parameter non-linear regression program.

[3] = 30 mg/kg IP every 4 days, 3 doses
[4] = 100 mg/kg IP every 4 days, 3 doses

B1: YW412.8.31: affinity matured form of YW412.8 anti-BACE1 antibody (antibody, V domains shown)
VH: EVQLVESGGGLVQPGGSLRLSCAASGFTFLGYGIHWVRQAPGKGLEWVGWISPAGGSTDYADSVKGRFTISADTSKNTAYLQMNSLRAEDTAVYYCARGPFSPWVMDYWGQGTLVTVSS
VL: DIQMTQSPSSLSASVGDRVTITCRASQDVSTAVAWYQQKPGKAPKLLIYSASFLYSGVPSRFSGSGSGTDFTLTISSLQPEDFATYYCQQFPTYLPTFGQGTKVEIK
- localization of antibody signal (mouse cortical neurons; 1 μM, 10 minutes to 3 hours, 37° C.): localized intracellularly
- co-localization with vesicular compartment markers (mouse cortical neurons; TfR, VAMP4, LAMP1 co-staining): co-localized with markers for early endosomes and TGN, but not lysosomes
- serum PK kinetics ([1]; 1 or 10 mg/kg single IV, BALB/C mice, to 21 days): non-linear
- serum PK kinetics ([1]; single dose, BACE1−/− mice): linear PK
- maximal inhibition (BACE1): 77%
- concentration in brain [2, 3]: 0.9±0.6 μg/g and 5.9±4.3 nM
- concentration in serum [2, 3]: 480 ± 210 µg/mL
- concentration in brain [2, 4]: 3.0±1.6 μg/g and 20±10 nM
- concentration in serum [2, 4]: 1500 ± 440 µg/mL
- brain concentration as share of concentration in serum ([2]; 100 mg/kg single IP, 4 hours): ~0.07%
- concentration in brain ([2]; 100 mg/kg single IP, 4 hours): 0.7±0.4 μg/g and 4.7±2.7 nM
- concentration in serum ([2]; 100 mg/kg single IP, 4 hours): 1040±140 μg/mL and 6.9±0.9 μM
